Results as given in US20100129369A1 (Eli Lilly, published 2010).
Where a chain is given by its changes, count along the chain named.

B1: C8-6 (antibody, human IgG2, kappa, V domains shown)
VH: QVQLVQSGAEVKKPGASVKVSCKASGYTFTDYYMHWVRQAPGQGLEWMGRVNPNRGGTTYNQKFEGRVTMTTDTSTSTAYMELRSLRSDDTAVYYCARTNWLDYWGQGTTVTVSS
VL: DIQMTQSPSSLSASVGDRVTITCSVSSSVSSIYLHWYQQKPGKAPKLLIYSTSNLASGVPSRFSGSGSGTDFTLTISSLQPEDFATYYCIQYSGYPLTFGGGTKVEIKR
notes: Named IgG4 kappa; also called C8-6 IgG4
B2: C8-co-16 (antibody, human IgG2, kappa, V domains shown)
VH: B1 VH with N54Y, G57S, T99A, W101I
VL: B1 VL with S30R, I90Q, Q91V, S93R
B3: C8-co-16 (antibody, human IgG2, kappa, V domains shown)
VH: B1 VH with N54Y, G57S, T99A, W101I
VL: B1 VL with S30R, I90Q, Q91V, S93R
notes: Named IgG4 kappa; also called C8-co-16 IgG4

Key:
human c-Met ECD-Fc-Flis [1] = molecular target: T1, human c-Met ECD-Fc-Flis (human); experiment: HGF-blocking ELISA: HGF signal on coated c-Met ECD-Fc-Flis; Ab 7812.50 ng/mL
T1 construct: c-Met ECD fused to Fc with flag- and His-tag at the C-terminus; also called human c-Met extracellular domain (ECD)-Fc-Flis fusion; human c-Met-Flis-Fc ECD
T1 sequence (chain, as listed by the source): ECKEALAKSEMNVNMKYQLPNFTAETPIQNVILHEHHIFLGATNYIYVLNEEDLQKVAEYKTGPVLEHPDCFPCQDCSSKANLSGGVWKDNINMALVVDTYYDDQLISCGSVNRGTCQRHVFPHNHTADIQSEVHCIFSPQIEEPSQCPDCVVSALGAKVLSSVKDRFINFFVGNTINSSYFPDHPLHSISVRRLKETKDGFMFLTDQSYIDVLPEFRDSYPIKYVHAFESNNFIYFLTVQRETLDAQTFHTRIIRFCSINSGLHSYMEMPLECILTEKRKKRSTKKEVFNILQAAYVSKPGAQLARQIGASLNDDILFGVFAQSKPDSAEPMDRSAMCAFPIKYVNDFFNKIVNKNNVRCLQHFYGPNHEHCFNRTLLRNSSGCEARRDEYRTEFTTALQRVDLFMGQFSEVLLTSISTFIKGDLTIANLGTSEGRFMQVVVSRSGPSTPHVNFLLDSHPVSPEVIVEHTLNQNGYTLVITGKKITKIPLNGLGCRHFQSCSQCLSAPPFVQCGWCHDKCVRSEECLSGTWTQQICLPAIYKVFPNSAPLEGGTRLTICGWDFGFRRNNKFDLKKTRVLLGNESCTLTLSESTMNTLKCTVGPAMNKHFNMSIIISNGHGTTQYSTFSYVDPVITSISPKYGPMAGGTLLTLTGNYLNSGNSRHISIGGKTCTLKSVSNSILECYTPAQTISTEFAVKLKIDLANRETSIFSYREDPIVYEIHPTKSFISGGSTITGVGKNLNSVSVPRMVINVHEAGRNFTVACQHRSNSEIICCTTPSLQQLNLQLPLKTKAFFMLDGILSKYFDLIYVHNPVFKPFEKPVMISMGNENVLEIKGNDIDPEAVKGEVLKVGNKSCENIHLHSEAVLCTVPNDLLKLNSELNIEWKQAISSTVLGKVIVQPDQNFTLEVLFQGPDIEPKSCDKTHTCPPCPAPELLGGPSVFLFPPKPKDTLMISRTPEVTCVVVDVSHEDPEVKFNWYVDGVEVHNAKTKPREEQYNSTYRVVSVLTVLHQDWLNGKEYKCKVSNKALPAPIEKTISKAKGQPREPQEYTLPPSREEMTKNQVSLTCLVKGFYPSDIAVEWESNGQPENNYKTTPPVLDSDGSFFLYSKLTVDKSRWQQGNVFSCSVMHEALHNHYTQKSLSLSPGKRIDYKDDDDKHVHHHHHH
Protocol: (§1) Wells of 96-well EIA/RIA high binding plates (Costar, #2592) are coated with 100 μL of human c-Met ECD-Fc-Flis (SEQ ID NO:72) (2 μg/mL) in Dulbecco's phosphate buffered saline (DPBS) overnight at room temperature; washed four times with wash buffer (Tris-buffered saline, pH 8.0, with 0.05% (v/v) polysorbate 20 (TWEEN®-20) (TBS-T) (BioFX Labs, # WSHW-1000-01) in a plate washer; blocked by adding 300 μL of blocking buffer (TBS-T plus 1% (w/v) bovine serum albumin (BSA) (Jackson Immuno, #001-000-162); and incubating for 60 min. at 37° C. Blocking buffer is then removed from the wells and 50 μL of antibodies in blocking buffer at final concentrations as indicated in Table 7 are added into each well, respectively. […] The plates with c-Met antibodies are incubated for 90 min. at 37° C. […] The wells are then washed four times with TBS-T in a plate washer. […] The plates are incubated for 90 min. at room temperature. The wells are again washed four times with TBS-T in a plate washer. 100 μL of a 1:200 dilution of streptavidin-horseradish peroxidase (HRP) (R&D Systems, DY998) in blocking buffer are added to each well. The plates are incubated for 30 min. at room temperature. The wells are washed four times with TBS-T in a plate washer. 100 μL/well of substrate solution (BioFx, #TMBW-1000-01) are then added, and the plates are incubated for 10 min. at room temperature. To stop the reaction, 100 μL/well of stop solution (BioFx, # LSTP-1000-01) are added. The samples are read at a wavelength of 450-570 nm on a microplate reader (Spectra, MAX 190) and no background is subtracted.

human c-Met ECD-Fc-Flis [2] = molecular target: T1, human c-Met ECD-Fc-Flis; experiment: HGF-blocking ELISA: HGF signal on coated c-Met ECD-Fc-Flis; Ab 7.63 ng/mL
Protocol: as §1

human c-Met ECD-Fc-Flis [3] = molecular target: T1, human c-Met ECD-Fc-Flis; experiment: HGF-blocking ELISA: HGF signal on coated c-Met ECD-Fc-Flis; Ab 1.91 ng/mL
Protocol: as §1

human c-Met ECD-Fc-Flis [4] = molecular target: T1, human c-Met ECD-Fc-Flis; experiment: HGF-blocking ELISA: HGF signal on coated c-Met ECD-Fc-Flis; Ab 30.52 ng/mL
Protocol: as §1

human c-Met [5] = molecular target: T2, human c-Met (human, UniProt P08581 25-1390); experiment: cell-based or functional assay
T2 sequence (P08581 25-1390): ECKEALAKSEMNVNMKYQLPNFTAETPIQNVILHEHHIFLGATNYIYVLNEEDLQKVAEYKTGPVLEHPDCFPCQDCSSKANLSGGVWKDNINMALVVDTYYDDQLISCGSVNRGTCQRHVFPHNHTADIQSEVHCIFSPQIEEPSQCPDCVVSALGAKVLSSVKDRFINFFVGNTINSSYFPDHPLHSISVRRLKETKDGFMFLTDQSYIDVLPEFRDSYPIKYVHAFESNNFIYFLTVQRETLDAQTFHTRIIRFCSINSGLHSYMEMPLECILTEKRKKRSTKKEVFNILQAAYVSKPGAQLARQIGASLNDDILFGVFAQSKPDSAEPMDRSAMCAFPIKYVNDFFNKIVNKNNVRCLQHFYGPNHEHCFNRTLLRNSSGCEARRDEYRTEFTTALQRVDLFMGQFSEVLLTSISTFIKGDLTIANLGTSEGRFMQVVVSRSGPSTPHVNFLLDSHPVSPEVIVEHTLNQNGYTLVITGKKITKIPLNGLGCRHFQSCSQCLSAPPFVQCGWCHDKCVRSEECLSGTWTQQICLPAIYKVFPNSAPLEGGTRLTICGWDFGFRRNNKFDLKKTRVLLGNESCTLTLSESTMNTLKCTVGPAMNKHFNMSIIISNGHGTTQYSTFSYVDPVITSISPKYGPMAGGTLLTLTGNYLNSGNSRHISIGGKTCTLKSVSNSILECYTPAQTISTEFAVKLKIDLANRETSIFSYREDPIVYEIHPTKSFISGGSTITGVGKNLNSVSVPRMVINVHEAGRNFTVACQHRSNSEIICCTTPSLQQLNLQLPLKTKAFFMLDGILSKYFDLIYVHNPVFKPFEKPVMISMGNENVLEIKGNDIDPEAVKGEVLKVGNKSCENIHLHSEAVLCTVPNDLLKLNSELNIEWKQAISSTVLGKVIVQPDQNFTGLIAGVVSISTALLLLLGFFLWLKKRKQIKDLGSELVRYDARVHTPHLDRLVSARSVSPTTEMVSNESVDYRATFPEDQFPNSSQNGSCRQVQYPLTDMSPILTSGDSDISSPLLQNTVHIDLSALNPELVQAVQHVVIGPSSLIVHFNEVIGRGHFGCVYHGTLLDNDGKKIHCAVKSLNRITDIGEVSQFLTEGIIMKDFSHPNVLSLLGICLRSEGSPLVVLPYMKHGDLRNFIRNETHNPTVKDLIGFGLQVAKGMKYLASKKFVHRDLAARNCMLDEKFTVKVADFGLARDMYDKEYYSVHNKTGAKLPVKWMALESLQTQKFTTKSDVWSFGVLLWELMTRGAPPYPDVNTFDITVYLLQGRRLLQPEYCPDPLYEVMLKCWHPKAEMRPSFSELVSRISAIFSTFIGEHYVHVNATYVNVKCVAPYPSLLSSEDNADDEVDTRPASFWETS

human c-Met ECD-Fc-Flis [6] = molecular target: T1, human c-Met ECD-Fc-Flis; experiment: HGF-blocking ELISA: HGF signal on coated c-Met ECD-Fc-Flis; Ab 0.00 ng/mL (HGF only)
Protocol: as §1

human c-Met [7] = molecular target: T2, human c-Met; experiment: cell-based or functional assay; remark: listed apart in the source
human c-Met ECD-Fc-Flis [8] = molecular target: T1, human c-Met ECD-Fc-Flis; experiment: HGF-blocking ELISA: HGF signal on coated c-Met ECD-Fc-Flis; Ab 1953.13 ng/mL
Protocol: as §1

human c-Met ECD-Fc-Flis [9] = molecular target: T1, human c-Met ECD-Fc-Flis; experiment: HGF-blocking ELISA: HGF signal on coated c-Met ECD-Fc-Flis; Ab 125000.00 ng/mL
Protocol: as §1

human c-Met ECD-Fc-Flis [10] = molecular target: T1, human c-Met ECD-Fc-Flis; experiment: HGF-blocking ELISA: HGF signal on coated c-Met ECD-Fc-Flis; Ab 122.07 ng/mL
Protocol: as §1

human c-Met ECD-Fc-Flis [11] = molecular target: T1, human c-Met ECD-Fc-Flis; experiment: HGF-blocking ELISA: HGF signal on coated c-Met ECD-Fc-Flis; Ab 31250.00 ng/mL
Protocol: as §1

human c-Met ECD-Fc-Flis [12] = molecular target: T1, human c-Met ECD-Fc-Flis; experiment: HGF-blocking ELISA: HGF signal on coated c-Met ECD-Fc-Flis; Ab 488.28 ng/mL
Protocol: as §1

human c-Met [13] = molecular target: T2, human c-Met; experiment: cell-based or functional assay; remark: listed apart in the source
human c-Met ECD-Fc-Flis [14] = molecular target: T1, human c-Met ECD-Fc-Flis; experiment: HGF-blocking ELISA: HGF signal on coated c-Met ECD-Fc-Flis; Ab 0.48 ng/mL
Protocol: as §1

human c-Met [15] = molecular target: T3, human c-Met (human, UniProt P08581 25-1390); experiment: cell-based or functional assay; remark: listed apart in the source
T3 sequence (P08581 25-1390): as above

human c-Met [16] = molecular target: T3, human c-Met; experiment: cell-based or functional assay; remark: listed apart in the source
human c-Met [17] = molecular target: T3, human c-Met; experiment: cell-based or functional assay; remark: listed apart in the source

Binder	AVG A450 nm (human c-Met ECD-Fc-Flis [1])	AVG A450 nm (human c-Met ECD-Fc-Flis [2])	AVG A450 nm (human c-Met ECD-Fc-Flis [3])	AVG A450 nm (human c-Met ECD-Fc-Flis [4])	% inhibition of HGF stimulated phospho-Met (ELISA, HCT116 cells), Ab 0.0032 µg/mL (human c-Met [5])	% inhibition of HGF stimulated phospho-Met (ELISA, HCT116 cells), Ab 0.016 µg/mL (human c-Met [5])	% inhibition of HGF stimulated phospho-Met (ELISA, HCT116 cells), Ab 0.08 µg/mL (human c-Met [5])	% inhibition of HGF stimulated phospho-Met (ELISA, HCT116 cells), Ab 0.4 µg/mL (human c-Met [5])	% inhibition of HGF stimulated phospho-Met (ELISA, HCT116 cells), Ab 2 µg/mL (human c-Met [5])	% inhibition of HGF stimulated phospho-Met (ELISA, HCT116 cells), Ab 10 µg/mL (human c-Met [5])	AVG A450 nm (human c-Met ECD-Fc-Flis [6])	AVG CPM, 3H-thymidine incorporation in MKN45 cells, Ab 0.0 ng/mL (no antibody) (human c-Met [7])	AVG CPM, 3H-thymidine incorporation in MKN45 cells, Ab 0.1 ng/mL (human c-Met [7])	AVG CPM, 3H-thymidine incorporation in MKN45 cells, Ab 0.4 ng/mL (human c-Met [7])	AVG CPM, 3H-thymidine incorporation in MKN45 cells, Ab 2.6 ng/mL (human c-Met [7])	AVG CPM, 3H-thymidine incorporation in MKN45 cells, Ab 15.4 ng/mL (human c-Met [7])	AVG CPM, 3H-thymidine incorporation in MKN45 cells, Ab 92.6 ng/mL (human c-Met [7])	AVG CPM, 3H-thymidine incorporation in MKN45 cells, Ab 555.6 ng/mL (human c-Met [7])	AVG CPM, 3H-thymidine incorporation in MKN45 cells, Ab 3333.3 ng/mL (human c-Met [7])	AVG CPM, 3H-thymidine incorporation in MKN45 cells, Ab 20000.0 ng/mL (human c-Met [7])	other results
B1	0.95 A450 nm	2.64 A450 nm	2.59 A450 nm	2.42 A450 nm	-11.3%	-6.06%	7.79%	16.8%	27.9%	14.9%	2.61 A450 nm	48700 CPM	51700 CPM	53400 CPM	54600 CPM	44800 CPM	23000 CPM	18300 CPM	18200 CPM	16400 CPM	AVG A450 nm (human c-Met ECD-Fc-Flis [8]): 1.08 A450 nm; AVG A450 nm (human c-Met ECD-Fc-Flis [9]): 1.32 A450 nm; AVG A450 nm (human c-Met ECD-Fc-Flis [10]): 2 A450 nm; AVG A450 nm (human c-Met ECD-Fc-Flis [11]): 0.98 A450 nm; AVG A450 nm (human c-Met ECD-Fc-Flis [12]): 1.33 A450 nm; Mean Fluorescence (c-Met left on the surface of MKN45 cells, FACS), Ab 5.00 ug/mL (human c-Met [13]): 67.9; AVG A450 nm (human c-Met ECD-Fc-Flis [14]): 2.56 A450 nm
B2																					Percent of DU145 Cells in Colonies (scatter assay), antibody 20 ug/mL (human c-Met [15]): 23.7%; 3H-Thymidine Incorporation in Caki-1 Cells in the Absence of HGF (AVG CPM), antibody dose 0.1 ng/mL (human c-Met [16]): 15600 CPM; 3H-Thymidine Incorporation in Caki-1 Cells in the Absence of HGF (AVG CPM), antibody dose 0.4 ng/mL (human c-Met [16]): 14100 CPM; 3H-Thymidine Incorporation in Caki-1 Cells in the Absence of HGF (AVG CPM), antibody dose 2.6 ng/mL (human c-Met [16]): 13700 CPM; 3H-Thymidine Incorporation in Caki-1 Cells in the Absence of HGF (AVG CPM), antibody dose 15.4 ng/mL (human c-Met [16]): 12100 CPM; 3H-Thymidine Incorporation in Caki-1 Cells in the Absence of HGF (AVG CPM), antibody dose 92.6 ng/mL (human c-Met [16]): 11600 CPM; 3H-Thymidine Incorporation in Caki-1 Cells in the Absence of HGF (AVG CPM), antibody dose 555.6 ng/mL (human c-Met [16]): 11400 CPM; 3H-Thymidine Incorporation in Caki-1 Cells in the Absence of HGF (AVG CPM), antibody dose 3333.3 ng/mL (human c-Met [16]): 13800 CPM; 3H-Thymidine Incorporation in Caki-1 Cells in the Absence of HGF (AVG CPM), antibody dose 20000.0 ng/mL (human c-Met [16]): 13100 CPM; 3H-Thymidine Incorporation in Primary Human Hepatocytes in the Absence of HGF (average), dose 0.0032 ug/mL (human c-Met [17]): 829; 3H-Thymidine Incorporation in Primary Human Hepatocytes in the Absence of HGF (average), dose 0.016 ug/mL (human c-Met [17]): 716; 3H-Thymidine Incorporation in Primary Human Hepatocytes in the Absence of HGF (average), dose 0.08 ug/mL (human c-Met [17]): 767; 3H-Thymidine Incorporation in Primary Human Hepatocytes in the Absence of HGF (average), dose 0.4 ug/mL (human c-Met [17]): 670; 3H-Thymidine Incorporation in Primary Human Hepatocytes in the Absence of HGF (average), dose 2 ug/mL (human c-Met [17]): 822; 3H-Thymidine Incorporation in Primary Human Hepatocytes in the Absence of HGF (average), dose 10 ug/mL (human c-Met [17]): 952
B3	0.57 A450 nm	2.2 A450 nm	2.18 A450 nm	2.08 A450 nm	-10.7%	-2.89%	9.77%	45.1%	59%	65.4%	2.61 A450 nm	51500 CPM	45700 CPM	47500 CPM	53500 CPM	22500 CPM	12400 CPM	13500 CPM	13000 CPM	11700 CPM	AVG A450 nm (human c-Met ECD-Fc-Flis [8]): 0.6 A450 nm; AVG A450 nm (human c-Met ECD-Fc-Flis [9]): 0.38 A450 nm; AVG A450 nm (human c-Met ECD-Fc-Flis [10]): 1.3 A450 nm; AVG A450 nm (human c-Met ECD-Fc-Flis [11]): 0.56 A450 nm; AVG A450 nm (human c-Met ECD-Fc-Flis [12]): 0.7 A450 nm; Mean Fluorescence (c-Met left on the surface of MKN45 cells, FACS), Ab 5.00 ug/mL (human c-Met [13]): 56.2; AVG A450 nm (human c-Met ECD-Fc-Flis [14]): 2.05 A450 nm
